Results as given in patent US8444970B2, “Compositions and methods for treating ocular diseases and conditions” (Lpath, Inc., priority 2006, dated 2013).

Experiments:
[1] = system: HUVECs; assay: HUVEC migration, Matrigel chemoinvasion assay; type: cell-based, human; details: 1 uM S1P, 1 ug/ml antibody, 6 hr
Protocol: FIG. 5. FIG. 5 has two panels, A and B. In panel A, S1P is shown to promote neovascularization through induction of HUVECs tube formation and migration, which is reduced by SPHINGOMAB. […] The number of cells that migrated to the Matrigel membrane were counted in five independent fields.
Experiments were performed as described by Visentin et al. (Cancer Cell 2006 March; 9(3):225-38).

[2] = system: perivascular fibrosis; assay: Permanent myocardial infarction model, cardiac scar formation (Masson's trichrome); type: in vivo, mouse; details: 25 mg/kg systemic, initiated 48 hrs after surgery
Protocol: Studies evaluated the efficacy of SPHINGOMAB to reduce cardiac scar formation after permanent myocardial infarction (MI) via ligation of the left descending coronary artery in mice. Systemic administration of 25 mg/kg SPHINGOMAB or saline was initiated 48 hrs after surgery. Antibody administration at 48 hr. was chosen to allow normal, reparative scar formation to occur during the early remodeling phase and permit beneficial, S1P-stimulated angiogenesis immediately after the MI. Two weeks after the infarct, mice were sacrificed and fibrosis was accessed by Masson's trichrome staining of the cardiac tissue. […] As a control for any non-specific wound-healing responses, sham animals underwent thoracotomy without coronary artery ligation (FIG. 7E).

[3] = system: ovarian cancer (OVCAR3) cells; assay: S1P-induced IL-8 release from ovarian cancer cells; type: cell-based; details: 1 uM S1P, 22 hours
Protocol: FIG. 12. FIG. 12 has two panels, A and B, that show data from in vitro cell assays performed using several humanized monoclonal antibody variants. […] As described in Example 16, below, SKOV3 cells were treated for 48 hr. with 500 nM Taxol (Tax) in the presence or absence of 500 nM S1P with huMAbHCLC3 (309), huMAbHCLC5 (308), muMAb S1P (muMAb), or non-specific IgG1 (NS) at a concentration of 1 μg/mL. Values represent means±SEM (n=3) with triplicates run for each data point. “NT” means not treated, and “Veh” stans for vehicle only. […] In the experiments described in detail in Example 16, below, 100,000 OVCAR3 cells/well were starved overnight and 1 uM S1P was added to the culture media alone or pre-incubated with 1 ug/ml of non-specific antibody (NS), pATH201+pATH309 (LC3), pATH201+pATH308 (LC5), pATH207+pATH309 (cysLC3), pATH207+pATH308 (cysLC5), and 0.1 ug/ml (M0.1), 1 ug/ml (M1) or 10 ug/ml (M10) of anti-S1P murine antibody. After 22 hours of incubation, cell supernatants were collected and IL-8 secretion was measured by ELISA using an R&D system Quantikine human CXCL8/IL-8 kit. In the figure “NT” refers to non-treated cells.
In parallel, all the variants were tested for their effects on S1P-induced cytokine release from cancer cells. S1P is known to elicit significant release of IL-8 into the cell-conditioned media from cancer cells.

[4] = system: cardiac fibroblasts from transgenic mice expressing collagen-GFP; assay: S1P-stimulated collagen gene expression (collagen-GFP reporter); type: cell-based, mouse; details: 1 ug/mL antibody, 12-24 hr
Protocol: (§1) FIG. 7. […] See Example 7, below, for experimental details. […] In these experiments, fibroblasts were serum-starved and then treated with 0, 0.1, 0.5, or 1 μM S1P+/−1 μg/mL SPHINGOMAB for 12-24 hr. […] SPHINGOMAB neutralized each of these S1P effects. SPHINGOMAB reduced perivascular fibrosis in vivo in a murine model of a permanent myocardial infarction (E).
(§2) S1P makes profound contributions to wound healing by activating fibroblast migration, proliferation and collagen production; SPHINGOMAB neutralizes these effects. Several studies using multiple types of fibroblasts confirm S1P's ability to promote wound healing: 1) S1P increased Swiss-3T3 fibroblast proliferation as measured by ^3H-thymidine incorporation using standard methods (FIG. 7A); 2) S1P promoted the migration of cardiac fibroblasts in a standard scratch wound healing assay. […] In each of these assays, SPHINGOMAB neutralized S1P's. It is anticipated that ocular fibroblasts would respond similarly to S1P and SPHINGOMAB.

[5] = system: endothelial cell (EC) infiltration into Matrigel plugs; assay: In vivo Matrigel plug assay, S1P-supplemented plugs, EC infiltration; design: species or system mouse; details: systemic administration every 48 hrs from 1 day prior to implantation
Protocol: Based on in vivo studies showing that S1P increased endothelial capillary growth into subcutaneously implanted Matrigel plugs, we speculated that SPHINGOMAB could reduce de novo BV formation in vivo. To investigate this, we employed the in vivo Matrigel Plug assay for neovascularization. In one set of experiments, Matrigel was supplemented with either […], 0.5 μg/mL bFGF or 1 μg/mL VEGF and then injected […]. into mice (n=4). After 10 days, the mice were heparinized and injected with the fluorescent lectin, Isolectin B4-FITC, which binds to adhesion molecules expressed by vascular EC that form the growing BVs. The plugs were then excised, frozen in OCT, sectioned and viewed for FITC-stained BVs.
Sections of the plugs were then stained with hemotoxyln & eosin for evaluation of EC infiltration (FIG. 6B). The infiltration of ECs is a critical step in neo-vascularization. […] Cell infiltration is presumed to be ECs although we recognize that other cell types such as immune cells may also be stained.

[6] = Stability after thermochallenge (TM); type: physicochemical; details: thermochallenge of supernatants
Protocol: iii. Stability. The humanized variants were tested for stability after challenge at high temperature. The approximate midpoints of the thermal unfolding transitions (TM) were determined for every humanized variant by subjecting the supernatants to temperatures ranging from 60 to 74° C. These temperatures were chosen based on the denaturation profile observed for the murine antibody molecule after thermochallenging between a broad range of temperatures between 50 and 80° C. The binding properties of each variant were determined before and after thermochallenge.

[7] = system: Swiss 3T3 fibroblasts; assay: S1P-stimulated fibroblast proliferation (3H-thymidine incorporation); type: cell-based; details: 1 ug/mL antibody, 12-24 hr
Protocol: as §1, §2

B1: LT1002: murine anti-S1P monoclonal antibody, IgG1 kappa, hybridoma clone 306D326.26 (antibody, listed as Mus sp., V domains shown)
VH: QAHLQQSDAELVKPGASVKISCKVSGFIFIDHTIHWMKQRPEQGLEWIGCISPRHDITKYNEMFRGKATLTADKSSTTAYIQVNSLTFEDSAVYFCARGGFYGSTIWFDFWGQGTTLTVS
VL: ETTVTQSPASLSMAIGEKVTIRCITTTDIDDDMNWFQQKPGEPPNLLISEGNILRPGVPSRFSSSGYGTDFLFTIENMLSEDVADYYCLQSDNLPFTFGSGTKLEIK
For B1, the “S1P-induced HUVEC tube formation and migration” value [1] was “reduced”, the “perivascular fibrosis two weeks after infarct” value [2] was “almost complete abrogation” and the IL-8 release [3] was “reduced IL-8 release”. For the same molecule, the S1P-promoted collagen expression [4] was “neutralized”, the “EC infiltration into S1P-containing Matrigel plugs” value [5] was “reduced amount of EC infiltration” and the “TM (approximate midpoint of thermal unfolding transition)” value [6] was 65 °C. The “S1P-stimulated Swiss 3T3 fibroblast proliferation” value [7] was “neutralized”.
